The target in the experiment is T1, human calcitonin receptor (human, UniProt P30988 25-474).
T1 construct: whole, on cells; also called hCT-R; hCTR
T1 sequence (looked up): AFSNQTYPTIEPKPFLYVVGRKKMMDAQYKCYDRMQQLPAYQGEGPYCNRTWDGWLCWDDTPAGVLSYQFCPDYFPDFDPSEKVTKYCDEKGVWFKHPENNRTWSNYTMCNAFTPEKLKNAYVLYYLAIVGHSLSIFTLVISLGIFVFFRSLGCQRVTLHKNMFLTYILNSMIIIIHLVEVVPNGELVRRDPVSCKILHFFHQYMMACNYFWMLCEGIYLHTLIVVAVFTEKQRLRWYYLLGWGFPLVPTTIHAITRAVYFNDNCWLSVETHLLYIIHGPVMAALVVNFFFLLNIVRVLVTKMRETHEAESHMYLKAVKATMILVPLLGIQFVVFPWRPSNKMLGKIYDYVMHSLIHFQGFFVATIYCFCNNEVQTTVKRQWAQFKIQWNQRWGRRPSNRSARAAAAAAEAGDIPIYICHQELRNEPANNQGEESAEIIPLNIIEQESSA
Kind of experiment: whole-cell competition vs 125I-human calcitonin (Assay VIIa). The essentials: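 BHK tk'ts 13 cells stably co-expressing human calcitonin receptor and a CRE-luciferase reporter, seeded overnight at 37 °C. Bound tracer counted by scintillation after cold HBSS washes and NaOH/SDS lysis; IC₅₀ from one-site competition fit taken as receptor affinity.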

IC50 data for nine molecules are collected here from US20160272683A1 (Novo Nordisk, published 2016).

Numbered stars: 1 amine (or outer) side, 2 acyl side, 3 side chain; on linkers, the order of the positions; unused ones are H or OH. * marks the point of attachment. C20 diacid = O=C(O)CCCCCCCCCCCCCCCCCCC(=O)*; C18 diacid = O=C(O)CCCCCCCCCCCCCCCCC(=O)*; γGlu = O=C(O)[C@H](CCC(=O)[*:2])N[*:1]

As a reminder, the IC50 is the point on the concentration scale where inhibition reaches its midpoint.

B1: [N-terminal(C18 diacid), 9V, 28P]mimylin (peptide)
peptide: {C18 diacid}-EASELSTAVLGRLSAELHELATLPRTEPGPESP-NH2
SMILES: CC(C)C[C@H](NC(=O)[C@H](CCC(=O)O)NC(=O)[C@H](Cc1c[nH]cn1)NC(=O)[C@H](CC(C)C)NC(=O)[C@H](CCC(=O)O)NC(=O)[C@H](C)NC(=O)[C@H](CO)NC(=O)[C@H](CC(C)C)NC(=O)[C@H](CCCNC(=N)N)NC(=O)CNC(=O)[C@H](CC(C)C)NC(=O)[C@@H](NC(=O)[C@H](C)NC(=O)[C@@H](NC(=O)[C@H](CO)NC(=O)[C@H](CC(C)C)NC(=O)[C@H](CCC(=O)O)NC(=O)[C@H](CO)NC(=O)[C@H](C)NC(=O)[C@H](CCC(=O)O)NC(=O)CCCCCCCCCCCCCCCCC(=O)O)[C@@H](C)O)C(C)C)C(=O)N[C@@H](C)C(=O)N[C@H](C(=O)N[C@@H](CC(C)C)C(=O)N1CCC[C@H]1C(=O)N[C@@H](CCCNC(=N)N)C(=O)N[C@H](C(=O)N[C@@H](CCC(=O)O)C(=O)N1CCC[C@H]1C(=O)NCC(=O)N1CCC[C@H]1C(=O)N[C@@H](CCC(=O)O)C(=O)N[C@@H](CO)C(=O)N1CCC[C@H]1C(N)=O)[C@@H](C)O)[C@@H](C)O
notes: also called Ex. #32
Turning to B1, the IC50 was determined as 3.35 nM.

Turning to {C18 diacid}-EASELSTAALGRLSAELHELATLPRTETGSGSP-NH2 (also called Ex. #21) [[N-terminal(C18 diacid), 30S, 31G]mimylin], the IC50 stood at 0.315 nM.

B2: [N-terminal(C20 diacid-gGlu), 1A, 23Y, 30S, 31G]mimylin (peptide)
peptide: {C20 diacid-γGlu}-AASELSTAALGRLSAELHELATYPRTETGSGSP-NH2
SMILES: CC(C)C[C@H](NC(=O)[C@H](C)NC(=O)[C@H](C)NC(=O)[C@@H](NC(=O)[C@H](CO)NC(=O)[C@H](CC(C)C)NC(=O)[C@H](CCC(=O)O)NC(=O)[C@H](CO)NC(=O)[C@H](C)NC(=O)[C@H](C)NC(=O)CC[C@H](NC(=O)CCCCCCCCCCCCCCCCCCC(=O)O)C(=O)O)[C@@H](C)O)C(=O)NCC(=O)N[C@@H](CCCNC(=N)N)C(=O)N[C@@H](CC(C)C)C(=O)N[C@@H](CO)C(=O)N[C@@H](C)C(=O)N[C@@H](CCC(=O)O)C(=O)N[C@@H](CC(C)C)C(=O)N[C@@H](Cc1c[nH]cn1)C(=O)N[C@@H](CCC(=O)O)C(=O)N[C@@H](CC(C)C)C(=O)N[C@@H](C)C(=O)N[C@H](C(=O)N[C@@H](Cc1ccc(O)cc1)C(=O)N1CCC[C@H]1C(=O)N[C@@H](CCCNC(=N)N)C(=O)N[C@H](C(=O)N[C@@H](CCC(=O)O)C(=O)N[C@H](C(=O)NCC(=O)N[C@@H](CO)C(=O)NCC(=O)N[C@@H](CO)C(=O)N1CCC[C@H]1C(N)=O)[C@@H](C)O)[C@@H](C)O)[C@@H](C)O
notes: also called Ex. #57
B2: the IC50 was determined as 2.54 nM.

Regarding {C20 diacid}-EASELSTAALGRLSAELHELATLPRTETGSGSP-NH2 (also called Ex. #22) [[N-terminal(C20 diacid), 30S, 31G]mimylin], the IC50 turned out to be 0.188 nM.

B3: [N-terminal(C18 diacid), 9V]mimylin (peptide)
peptide: {C18 diacid}-EASELSTAVLGRLSAELHELATLPRTETGPESP-NH2
SMILES: CC(C)C[C@H](NC(=O)[C@H](CCC(=O)O)NC(=O)[C@H](Cc1c[nH]cn1)NC(=O)[C@H](CC(C)C)NC(=O)[C@H](CCC(=O)O)NC(=O)[C@H](C)NC(=O)[C@H](CO)NC(=O)[C@H](CC(C)C)NC(=O)[C@H](CCCNC(=N)N)NC(=O)CNC(=O)[C@H](CC(C)C)NC(=O)[C@@H](NC(=O)[C@H](C)NC(=O)[C@@H](NC(=O)[C@H](CO)NC(=O)[C@H](CC(C)C)NC(=O)[C@H](CCC(=O)O)NC(=O)[C@H](CO)NC(=O)[C@H](C)NC(=O)[C@H](CCC(=O)O)NC(=O)CCCCCCCCCCCCCCCCC(=O)O)[C@@H](C)O)C(C)C)C(=O)N[C@@H](C)C(=O)N[C@H](C(=O)N[C@@H](CC(C)C)C(=O)N1CCC[C@H]1C(=O)N[C@@H](CCCNC(=N)N)C(=O)N[C@H](C(=O)N[C@@H](CCC(=O)O)C(=O)N[C@H](C(=O)NCC(=O)N1CCC[C@H]1C(=O)N[C@@H](CCC(=O)O)C(=O)N[C@@H](CO)C(=O)N1CCC[C@H]1C(N)=O)[C@@H](C)O)[C@@H](C)O)[C@@H](C)O
notes: also called Ex. #9
In the case of B3, the IC50 stood at 0.736 nM.

B4: [N-terminal(C18 diacid), 20I]mimylin (peptide)
peptide: {C18 diacid}-EASELSTAALGRLSAELHEIATLPRTETGPESP-NH2
SMILES: CC[C@H](C)[C@H](NC(=O)[C@H](CCC(=O)O)NC(=O)[C@H](Cc1c[nH]cn1)NC(=O)[C@H](CC(C)C)NC(=O)[C@H](CCC(=O)O)NC(=O)[C@H](C)NC(=O)[C@H](CO)NC(=O)[C@H](CC(C)C)NC(=O)[C@H](CCCNC(=N)N)NC(=O)CNC(=O)[C@H](CC(C)C)NC(=O)[C@H](C)NC(=O)[C@H](C)NC(=O)[C@@H](NC(=O)[C@H](CO)NC(=O)[C@H](CC(C)C)NC(=O)[C@H](CCC(=O)O)NC(=O)[C@H](CO)NC(=O)[C@H](C)NC(=O)[C@H](CCC(=O)O)NC(=O)CCCCCCCCCCCCCCCCC(=O)O)[C@@H](C)O)C(=O)N[C@@H](C)C(=O)N[C@H](C(=O)N[C@@H](CC(C)C)C(=O)N1CCC[C@H]1C(=O)N[C@@H](CCCNC(=N)N)C(=O)N[C@H](C(=O)N[C@@H](CCC(=O)O)C(=O)N[C@H](C(=O)NCC(=O)N1CCC[C@H]1C(=O)N[C@@H](CCC(=O)O)C(=O)N[C@@H](CO)C(=O)N1CCC[C@H]1C(N)=O)[C@@H](C)O)[C@@H](C)O)[C@@H](C)O
notes: also called Ex. #12
Consider B4, for which the IC50 was determined as 0.419 nM.

B5: [N-terminal(C18 diacid), 18A]mimylin (peptide)
peptide: {C18 diacid}-EASELSTAALGRLSAELAELATLPRTETGPESP-NH2
SMILES: CC(C)C[C@H](NC(=O)[C@H](C)NC(=O)[C@H](C)NC(=O)[C@@H](NC(=O)[C@H](CO)NC(=O)[C@H](CC(C)C)NC(=O)[C@H](CCC(=O)O)NC(=O)[C@H](CO)NC(=O)[C@H](C)NC(=O)[C@H](CCC(=O)O)NC(=O)CCCCCCCCCCCCCCCCC(=O)O)[C@@H](C)O)C(=O)NCC(=O)N[C@@H](CCCNC(=N)N)C(=O)N[C@@H](CC(C)C)C(=O)N[C@@H](CO)C(=O)N[C@@H](C)C(=O)N[C@@H](CCC(=O)O)C(=O)N[C@@H](CC(C)C)C(=O)N[C@@H](C)C(=O)N[C@@H](CCC(=O)O)C(=O)N[C@@H](CC(C)C)C(=O)N[C@@H](C)C(=O)N[C@H](C(=O)N[C@@H](CC(C)C)C(=O)N1CCC[C@H]1C(=O)N[C@@H](CCCNC(=N)N)C(=O)N[C@H](C(=O)N[C@@H](CCC(=O)O)C(=O)N[C@H](C(=O)NCC(=O)N1CCC[C@H]1C(=O)N[C@@H](CCC(=O)O)C(=O)N[C@@H](CO)C(=O)N1CCC[C@H]1C(N)=O)[C@@H](C)O)[C@@H](C)O)[C@@H](C)O
notes: also called Ex. #13
B5: the IC50 was 0.279 nM.

B6: [N-terminal(C18 diacid), 17I]mimylin (peptide)
peptide: {C18 diacid}-EASELSTAALGRLSAEIHELATLPRTETGPESP-NH2
SMILES: CC[C@H](C)[C@H](NC(=O)[C@H](CCC(=O)O)NC(=O)[C@H](C)NC(=O)[C@H](CO)NC(=O)[C@H](CC(C)C)NC(=O)[C@H](CCCNC(=N)N)NC(=O)CNC(=O)[C@H](CC(C)C)NC(=O)[C@H](C)NC(=O)[C@H](C)NC(=O)[C@@H](NC(=O)[C@H](CO)NC(=O)[C@H](CC(C)C)NC(=O)[C@H](CCC(=O)O)NC(=O)[C@H](CO)NC(=O)[C@H](C)NC(=O)[C@H](CCC(=O)O)NC(=O)CCCCCCCCCCCCCCCCC(=O)O)[C@@H](C)O)C(=O)N[C@@H](Cc1c[nH]cn1)C(=O)N[C@@H](CCC(=O)O)C(=O)N[C@@H](CC(C)C)C(=O)N[C@@H](C)C(=O)N[C@H](C(=O)N[C@@H](CC(C)C)C(=O)N1CCC[C@H]1C(=O)N[C@@H](CCCNC(=N)N)C(=O)N[C@H](C(=O)N[C@@H](CCC(=O)O)C(=O)N[C@H](C(=O)NCC(=O)N1CCC[C@H]1C(=O)N[C@@H](CCC(=O)O)C(=O)N[C@@H](CO)C(=O)N1CCC[C@H]1C(N)=O)[C@@H](C)O)[C@@H](C)O)[C@@H](C)O
notes: also called Ex. #11
Turning to B6, the IC50 came to 1.37 nM.

B7: [N-terminal(C18 diacid), 32H]mimylin (peptide)
peptide: {C18 diacid}-EASELSTAALGRLSAELHELATLPRTETGPEHP-NH2
SMILES: CC(C)C[C@H](NC(=O)[C@H](C)NC(=O)[C@H](C)NC(=O)[C@@H](NC(=O)[C@H](CO)NC(=O)[C@H](CC(C)C)NC(=O)[C@H](CCC(=O)O)NC(=O)[C@H](CO)NC(=O)[C@H](C)NC(=O)[C@H](CCC(=O)O)NC(=O)CCCCCCCCCCCCCCCCC(=O)O)[C@@H](C)O)C(=O)NCC(=O)N[C@@H](CCCNC(=N)N)C(=O)N[C@@H](CC(C)C)C(=O)N[C@@H](CO)C(=O)N[C@@H](C)C(=O)N[C@@H](CCC(=O)O)C(=O)N[C@@H](CC(C)C)C(=O)N[C@@H](Cc1c[nH]cn1)C(=O)N[C@@H](CCC(=O)O)C(=O)N[C@@H](CC(C)C)C(=O)N[C@@H](C)C(=O)N[C@H](C(=O)N[C@@H](CC(C)C)C(=O)N1CCC[C@H]1C(=O)N[C@@H](CCCNC(=N)N)C(=O)N[C@H](C(=O)N[C@@H](CCC(=O)O)C(=O)N[C@H](C(=O)NCC(=O)N1CCC[C@H]1C(=O)N[C@@H](CCC(=O)O)C(=O)N[C@@H](Cc1c[nH]cn1)C(=O)N1CCC[C@H]1C(N)=O)[C@@H](C)O)[C@@H](C)O)[C@@H](C)O
notes: also called Ex. #18
Consider B7, for which the IC50 was 1.17 nM.
